Laboratory results reported in US20220275357A1, “CAPSULE PROTEIN AND MULTIMERIC COMPLEX COMPOSITION THEREOF, AND PHARMACEUTICAL COMPOSITION USING SAME” (UNIVERSITY PUBLIC CORPORATION OSAKA, priority 2019, published 2022).

Legend:
Assay type in all cases: physicochemical
[1] = Drug releasing capacity: equilibrium dialysis of SN-38-loaded capsule proteins
Description: (§1) With a dialysis membrane (Dialysis Membrane, Size 27 Wako molecular weight cut-off: 14,000), each 5 mL of samples was each dialyzed against 150 mL of PBS as an external solution in an incubator at 37° C. for 72 hours. Each of the samples included the solution of SN-38/mutant L-PGDS, SN-38/barrier-attached D-clip mutant or SN-38/targeting barrier-attached D-clip mutant. The samples were prepared to contain 50 uM of SN-38 and 50 uM of the respective capsule proteins.
(§2) At 0, 1, 3, 6, 8, 12, 24, 36, 48, 60, and 72 hours after the start of dialysis, 500 μL of the external solution was sampled, and the same amount of PBS was added instead. SN-38 concentration in the sampled external solutions was measured with a fluorescence spectrophotometer F-7000 (HITACHI; excitation wavelength: 365 nm; measuring wavelength: 380 to 600 nm; and monitoring temperature: 37° C.).
Subsequently, drug release function in response to a reducing environment of the barrier-attached D-clip mutant and the targeting barrier-attached D-clip mutant was evaluated by equilibrium dialysis method in the same manner as described above. PBS and 10 mM DTT/PBS solutions were used as the external solutions for dialysis. The external PBS and 10 mM DTT/PBS solutions simulated oxidizing and reducing environments, respectively.
The horizontal axis represents reaction time (hr), and the vertical axis represents SN-38 concentration (nM). Error bars represent the standard error of the mean, or mean±standard error (n=3). The abbreviations or symbols in the figure have the following meanings: “SN-38/L-PGDS” or “●” represents SN-38/mutant L-PGDS; “SN-38/Capsule” or “▴” represents SN-38/barrier-attached D-clip mutant; and “SN-38/Cap-sCRGDK” or “▪” represents SN-38/targeting barrier-attached D-clip mutant. The symbols “Δ” and “□” with“+10 mM DTT” represent the results of the pharmaceutical compositions, i.e.“SN-38/Capsule” and “SN-38/Cap-sCRGDK” in the presence of 10 mM DTT, respectively. The addition of DTT (Dithiothreitol) allows the solutions to have a strong reducing environment. […]

[2] = Equilibrium dialysis of dipyridamole-loaded capsule proteins (holding force); details: dipyridamole encapsulated instead of SN-38, external solution PBS, FIG. 10
Description: as §1, §2
Dipyridamole is a poorly water-soluble antianginal drug. The external solution was PBS. Referring to FIG. 10, the horizontal and the left vertical axes represent the reaction time (hr) and dipyridamole concentration (nM), respectively. In addition, the right vertical axis represents the release rate (%), or a value converted from the concentration on the left vertical axis.

[3] = Size measurement by small-angle X-ray scattering (SAXS); details: 25° C.; for Rg: radius of gyration from Guinier region
Description: Size of the obtained octameric composition was measured by small-angle X-ray scattering (SAXS). For comparison, size of the mutant L-PGDS was also measured.
SAXS data collection was carried out at BL40B2, a beamline in the SPring-8 synchrotron radiation facility (Sayo-gun, Hyogo). The X-ray wavelength was tuned to 1.000 A (angstrom), the sample-to-detector distance was set to 2.193 m, and the experiments were performed at 25° C. The exposure times for each measurement were 20 to 50 s. Scattering intensity was recorded with PILATUS-2M (RIGAKU, Tokyo) as a detector.
A sample cell with a thickness of 3.0 mm was used to maximize scattering of X-ray. The windows of the cell were made of 0.02 mm thick quartz plates. To avoid systematic errors, the inventor measured the sample (protein) and buffer solutions alternately. 25 μL of a sample solution was placed in the cell for its data collection. The solution was removed from the cell; and the cell was then washed 3 times with a buffer solution before data collection of the next sample solution.
Two-dimensionally recorded scattering patterns of the protein sample and the buffer solutions were transformed to a one-dimensional profile by circular averaging. Contributions to scattering intensities from the solvent were eliminated from the raw data of the sample solutions by subtracting the intensity profile obtained for the buffer solution. Scattering profiles in the small-angle region were analyzed by Guinier's approximation for monodispersive systems: The scattering intensity (I (S,C)) as a function of reciprocal vector (S) and protein concentration (C), is expressed by the forward scattering intensity (I(0,C)) and the radius of gyration Rg(C) (See the following formula (1)).
wherein, 2θ represents the scattering angle relative to the incident beam, and λ represents the X-ray wavelength.
The radius of gyration Rg for each sample solution was calculated from Guinier region in its scattering profile. […]

B1: mutant L-PGDS: human L-PGDS variant SEQ ID NO: 2 with C45A and C147A substitutions, GS added to N-terminus (protein)
chain: GSAPEAQVSVQPNFQQDKFLGRWFSAGLASNSSWLREKKAALSMAKSVVAPATDGGLNLTSTFLRKNQCETRTMLLQPAGSLGSYSYRSPHWGSTYSVSVVETDYDQYALLYSQGSKGPGEDFRMATLYSRTQTPRAELKEKFTAFAKAQGFTEDTIVFLPQTDKCMTEQ
modifications: N-terminal GS added; Enzyme inactivation Mutant
[1]; 10 mM DTT/PBS, reached within shorter reaction time, then almost a plateau, FIG. 9(a)
  concentration of SN-38 in the external DTT/PBS solution: 2000 nM
[2]
  dipyridamole concentration in external solution: increased over the reaction time
[3]
  Dmax: 4.75 nm
[3]; listed as Monomer
  Rg: 1.8 ± 0.04 nm
[3]; listed as monomer (mutant L-PGDS)
  Rg: 1.8±0.04 nm

B2: barrier-attached mutant (protein)
chain: GSAPEAQVSVQPNFQQDKFLGRWFSAGLASNSSWLREKKAALSMAKSVVAPATDGGLNLTSTFLRKNQCETRTWLLQPAGSLGSYSYRSPHWGSTYSVSVVETDYDQYALLYSQGSKGPGEDFRMATLYSRTQTPRAELKEKFTAFAKAQGFTEDTIVFLPQTDKCMTEQ
modifications: Barrier Mutant
[1]; 10 mM DTT/PBS, at the first 48 hours of dialysis, FIG. 9(b)
  SN-38 concentration in the external DTT/PBS solution: approximately 2.0 μM
[1]; PBS, at the end of the monitoring period, FIG. 9(b)
  concentration of SN-38 in the external solution PBS: ≤ 1000 nM
[2]
  dipyridamole concentration in external solution: increased only to the vicinity of the detection limit
